Starred links: 1 amine or outer side, 2 acyl side, 3 side chain; linkers in the order of their positions; H or OH if unused. Non-standard residues stand in square brackets, D forms with d. Groups on a side chain read outwards from the residue. No end group written: not given here. *: point of attachment. C18 diacid = O=C(O)CCCCCCCCCCCCCCCCC(=O)*; γGlu = O=C(O)[C@H](CCC(=O)[*:2])N[*:1]; Palmitoyl = CCCCCCCCCCCCCCCC(=O)*; AEEA = NCCOCCOCC(=O)O; Aib = CC(C)(N)C(=O)O
Experiments:
rat CRF2R α receptor = rat CRF2R α receptor (rat, UniProt P47866 20-411); assay: cell-based or functional assay
[1] = biological target: T1, CRF1R receptor (anti-target) (UniProt P34998 24-415, limits assumed); assay: cell-based or functional assay
T1 sequence (looked up): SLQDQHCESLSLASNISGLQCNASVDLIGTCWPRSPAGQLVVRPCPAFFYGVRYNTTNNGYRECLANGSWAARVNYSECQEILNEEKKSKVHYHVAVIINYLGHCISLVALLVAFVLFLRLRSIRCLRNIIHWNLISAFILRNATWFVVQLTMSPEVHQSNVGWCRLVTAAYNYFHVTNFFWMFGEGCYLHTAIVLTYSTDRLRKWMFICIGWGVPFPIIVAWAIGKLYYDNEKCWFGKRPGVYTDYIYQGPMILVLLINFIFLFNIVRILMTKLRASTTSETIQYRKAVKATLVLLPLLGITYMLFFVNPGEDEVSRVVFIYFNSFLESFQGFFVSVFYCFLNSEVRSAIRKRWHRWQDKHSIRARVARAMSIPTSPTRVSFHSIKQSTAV

rat CRF2R α receptor, sequence (P47866 20-411): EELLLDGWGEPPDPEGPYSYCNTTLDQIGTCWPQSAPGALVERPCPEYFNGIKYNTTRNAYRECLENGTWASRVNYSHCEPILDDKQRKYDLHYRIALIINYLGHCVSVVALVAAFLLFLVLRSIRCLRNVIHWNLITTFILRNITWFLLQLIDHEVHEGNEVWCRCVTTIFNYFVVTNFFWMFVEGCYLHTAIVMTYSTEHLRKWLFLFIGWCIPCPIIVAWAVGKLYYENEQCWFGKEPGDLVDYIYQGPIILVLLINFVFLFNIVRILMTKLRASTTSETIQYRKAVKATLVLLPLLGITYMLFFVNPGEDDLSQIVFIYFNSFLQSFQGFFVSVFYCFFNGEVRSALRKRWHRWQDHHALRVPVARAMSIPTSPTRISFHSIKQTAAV

B1: peptide of SEQ ID NO: 36 (peptide)
peptide: IVLSLD[dV]PTKLK([AEEA-AEEA-γGlu-C18 diacid])QKLLKQERQRK[Aib]REQAEKNKRILERV-NH2
modifications: N-terminus assumed
SMILES: CC[C@H](C)[C@H](N)C(=O)N[C@H](C(=O)N[C@@H](CC(C)C)C(=O)N[C@@H](CO)C(=O)N[C@@H](CC(C)C)C(=O)N[C@@H](CC(=O)O)C(=O)N[C@@H](C(=O)N1CCC[C@H]1C(=O)N[C@H](C(=O)N[C@@H](CCCCN)C(=O)N[C@@H](CC(C)C)C(=O)N[C@@H](CCCCNC(=O)COCCOCCNC(=O)COCCOCCNC(=O)CC[C@H](NC(=O)CCCCCCCCCCCCCCCCC(=O)O)C(=O)O)C(=O)N[C@@H](CCC(N)=O)C(=O)N[C@@H](CCCCN)C(=O)N[C@@H](CC(C)C)C(=O)N[C@@H](CC(C)C)C(=O)N[C@@H](CCCCN)C(=O)N[C@@H](CCC(N)=O)C(=O)N[C@@H](CCC(=O)O)C(=O)N[C@@H](CCCNC(=N)N)C(=O)N[C@@H](CCC(N)=O)C(=O)N[C@@H](CCCNC(=N)N)C(=O)N[C@@H](CCCCN)C(=O)NC(C)(C)C(=O)N[C@@H](CCCNC(=N)N)C(=O)N[C@@H](CCC(=O)O)C(=O)N[C@@H](CCC(N)=O)C(=O)N[C@@H](C)C(=O)N[C@@H](CCC(=O)O)C(=O)N[C@@H](CCCCN)C(=O)N[C@@H](CC(N)=O)C(=O)N[C@@H](CCCCN)C(=O)N[C@@H](CCCNC(=N)N)C(=O)N[C@H](C(=O)N[C@@H](CC(C)C)C(=O)N[C@@H](CCC(=O)O)C(=O)N[C@@H](CCCNC(=N)N)C(=O)N[C@H](C(N)=O)C(C)C)[C@@H](C)CC)[C@@H](C)O)C(C)C)C(C)C
- EC50 [nM], 0% HSA (cAMP, A7R5 cells) (rat CRF2R α receptor): 13.3 nM

B2: peptide of SEQ ID NO: 226 (peptide)
peptide: IVLSLD[dV]PIGLK([γGlu-Palmitoyl])QKLLKQQRQRKERQQAEKNKRILERV-NH2
modifications: N-terminus assumed
SMILES: CCCCCCCCCCCCCCCC(=O)N[C@@H](CCC(=O)NCCCC[C@H](NC(=O)[C@H](CC(C)C)NC(=O)CNC(=O)[C@@H](NC(=O)[C@@H]1CCCN1C(=O)[C@H](NC(=O)[C@H](CC(=O)O)NC(=O)[C@H](CC(C)C)NC(=O)[C@H](CO)NC(=O)[C@H](CC(C)C)NC(=O)[C@@H](NC(=O)[C@@H](N)[C@@H](C)CC)C(C)C)C(C)C)[C@@H](C)CC)C(=O)N[C@@H](CCC(N)=O)C(=O)N[C@@H](CCCCN)C(=O)N[C@@H](CC(C)C)C(=O)N[C@@H](CC(C)C)C(=O)N[C@@H](CCCCN)C(=O)N[C@@H](CCC(N)=O)C(=O)N[C@@H](CCC(N)=O)C(=O)N[C@@H](CCCNC(=N)N)C(=O)N[C@@H](CCC(N)=O)C(=O)N[C@@H](CCCNC(=N)N)C(=O)N[C@@H](CCCCN)C(=O)N[C@@H](CCC(=O)O)C(=O)N[C@@H](CCCNC(=N)N)C(=O)N[C@@H](CCC(N)=O)C(=O)N[C@@H](CCC(N)=O)C(=O)N[C@@H](C)C(=O)N[C@@H](CCC(=O)O)C(=O)N[C@@H](CCCCN)C(=O)N[C@@H](CC(N)=O)C(=O)N[C@@H](CCCCN)C(=O)N[C@@H](CCCNC(=N)N)C(=O)N[C@H](C(=O)N[C@@H](CC(C)C)C(=O)N[C@@H](CCC(=O)O)C(=O)N[C@@H](CCCNC(=N)N)C(=O)N[C@H](C(N)=O)C(C)C)[C@@H](C)CC)C(=O)O
- EC50 [nM] 0% HSA (cAMP, HTRF) [1]: 96.2 nM
- Emax (%) (100% = Sauvagine at 100 nM) [1]: 84%

B3: peptide of SEQ ID NO: 43 (peptide)
peptide: IVLSLDVPIKLK([AEEA-AEEA-γGlu-C18 diacid])QILLEQAKQKKLRAQAETNVRILERV-NH2
modifications: N-terminus assumed
SMILES: CC[C@H](C)[C@H](N)C(=O)N[C@H](C(=O)N[C@@H](CC(C)C)C(=O)N[C@@H](CO)C(=O)N[C@@H](CC(C)C)C(=O)N[C@@H](CC(=O)O)C(=O)N[C@H](C(=O)N1CCC[C@H]1C(=O)N[C@H](C(=O)N[C@@H](CCCCN)C(=O)N[C@@H](CC(C)C)C(=O)N[C@@H](CCCCNC(=O)COCCOCCNC(=O)COCCOCCNC(=O)CC[C@H](NC(=O)CCCCCCCCCCCCCCCCC(=O)O)C(=O)O)C(=O)N[C@@H](CCC(N)=O)C(=O)N[C@H](C(=O)N[C@@H](CC(C)C)C(=O)N[C@@H](CC(C)C)C(=O)N[C@@H](CCC(=O)O)C(=O)N[C@@H](CCC(N)=O)C(=O)N[C@@H](C)C(=O)N[C@@H](CCCCN)C(=O)N[C@@H](CCC(N)=O)C(=O)N[C@@H](CCCCN)C(=O)N[C@@H](CCCCN)C(=O)N[C@@H](CC(C)C)C(=O)N[C@@H](CCCNC(=N)N)C(=O)N[C@@H](C)C(=O)N[C@@H](CCC(N)=O)C(=O)N[C@@H](C)C(=O)N[C@@H](CCC(=O)O)C(=O)N[C@H](C(=O)N[C@@H](CC(N)=O)C(=O)N[C@H](C(=O)N[C@@H](CCCNC(=N)N)C(=O)N[C@H](C(=O)N[C@@H](CC(C)C)C(=O)N[C@@H](CCC(=O)O)C(=O)N[C@@H](CCCNC(=N)N)C(=O)N[C@H](C(N)=O)C(C)C)[C@@H](C)CC)C(C)C)[C@@H](C)O)[C@@H](C)CC)[C@@H](C)CC)C(C)C)C(C)C
- EC50 [nM], 0% HSA (cAMP, A7R5 cells) (rat CRF2R α receptor): 11.5 nM

B4: peptide of SEQ ID NO: 18 (peptide)
peptide: IVLSLD[dV]PTKLK([γGlu-Palmitoyl])QKLLKQERQRKEREQAEKNKRILERV-NH2
modifications: N-terminus assumed
SMILES: CCCCCCCCCCCCCCCC(=O)N[C@@H](CCC(=O)NCCCC[C@H](NC(=O)[C@H](CC(C)C)NC(=O)[C@H](CCCCN)NC(=O)[C@@H](NC(=O)[C@@H]1CCCN1C(=O)[C@H](NC(=O)[C@H](CC(=O)O)NC(=O)[C@H](CC(C)C)NC(=O)[C@H](CO)NC(=O)[C@H](CC(C)C)NC(=O)[C@@H](NC(=O)[C@@H](N)[C@@H](C)CC)C(C)C)C(C)C)[C@@H](C)O)C(=O)N[C@@H](CCC(N)=O)C(=O)N[C@@H](CCCCN)C(=O)N[C@@H](CC(C)C)C(=O)N[C@@H](CC(C)C)C(=O)N[C@@H](CCCCN)C(=O)N[C@@H](CCC(N)=O)C(=O)N[C@@H](CCC(=O)O)C(=O)N[C@@H](CCCNC(=N)N)C(=O)N[C@@H](CCC(N)=O)C(=O)N[C@@H](CCCNC(=N)N)C(=O)N[C@@H](CCCCN)C(=O)N[C@@H](CCC(=O)O)C(=O)N[C@@H](CCCNC(=N)N)C(=O)N[C@@H](CCC(=O)O)C(=O)N[C@@H](CCC(N)=O)C(=O)N[C@@H](C)C(=O)N[C@@H](CCC(=O)O)C(=O)N[C@@H](CCCCN)C(=O)N[C@@H](CC(N)=O)C(=O)N[C@@H](CCCCN)C(=O)N[C@@H](CCCNC(=N)N)C(=O)N[C@H](C(=O)N[C@@H](CC(C)C)C(=O)N[C@@H](CCC(=O)O)C(=O)N[C@@H](CCCNC(=N)N)C(=O)N[C@H](C(N)=O)C(C)C)[C@@H](C)CC)C(=O)O
- EC50 [nM], 0% HSA (cAMP, A7R5 cells) (rat CRF2R α receptor): 0.02 nM

B5: peptide of SEQ ID NO: 225 (peptide)
peptide: IVLSLD[dV]PTKLK([γGlu-Palmitoyl])QKLLKQERQRKERE[Aib]AEKNKRILERV-NH2
- EC50 [nM] 0% HSA (cAMP, HTRF) [1]: 24.2 nM
- Emax (%) (100% = Sauvagine at 100 nM) [1]: 58.9%
